# T1: recombinant cynomolgus monkey CD70 protein (cynomolgus monkey, UniProt A0A2K5WTU9 39-190)
# T1 construct: it stands only in column heads ('Monkey', 'Cynomolgus Monkey CD70/CD27') and in result sentences; also called Monkey (ELISA)
# T1 sequence: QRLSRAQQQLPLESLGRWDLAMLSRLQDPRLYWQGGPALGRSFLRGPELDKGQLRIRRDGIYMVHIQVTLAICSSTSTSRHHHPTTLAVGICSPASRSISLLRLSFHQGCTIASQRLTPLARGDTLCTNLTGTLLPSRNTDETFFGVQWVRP
# T2: cynomolgus monkey CD70, full length, on CHO cells (CHO-monkey CD70-D01) (cynomolgus monkey, UniProt A0A2K5WTU9 1-190)
# T2 construct: whole, on cells; Stably transfected CHO cells; also called CHO-cynomolgus monkey CD70
# T2 sequence: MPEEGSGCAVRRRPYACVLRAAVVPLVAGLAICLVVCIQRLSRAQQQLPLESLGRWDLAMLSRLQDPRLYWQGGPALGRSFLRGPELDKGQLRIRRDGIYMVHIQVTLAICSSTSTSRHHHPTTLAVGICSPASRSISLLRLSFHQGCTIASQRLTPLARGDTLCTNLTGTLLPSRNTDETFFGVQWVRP
# T3: human CD70, full length, on CHO cells (CHO-human CD70-B07) (human, UniProt P32970 1-193)
# T3 construct: whole, on cells; Stably transfected CHO cells; also called CHO-CD70
# T3 sequence (looked up): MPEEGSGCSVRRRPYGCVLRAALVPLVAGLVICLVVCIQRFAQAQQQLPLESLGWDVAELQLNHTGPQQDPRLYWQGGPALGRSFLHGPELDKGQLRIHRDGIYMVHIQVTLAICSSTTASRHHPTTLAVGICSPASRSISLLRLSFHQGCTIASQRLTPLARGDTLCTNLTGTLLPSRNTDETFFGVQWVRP
# T4: recombinant trimeric protein of human CD70 extracellular region (human CD70 mIgG Fc (knob) / mouse IgG Fc … (human, UniProt P01863 98-330 = IgG part))
# T4 construct: The ELISA and Octet texts say only 'recombinant CD70 protein' / 'CM352 antigen'; also called recombinant human CD70 protein; recombinant CD70 protein
# T4 chain 1: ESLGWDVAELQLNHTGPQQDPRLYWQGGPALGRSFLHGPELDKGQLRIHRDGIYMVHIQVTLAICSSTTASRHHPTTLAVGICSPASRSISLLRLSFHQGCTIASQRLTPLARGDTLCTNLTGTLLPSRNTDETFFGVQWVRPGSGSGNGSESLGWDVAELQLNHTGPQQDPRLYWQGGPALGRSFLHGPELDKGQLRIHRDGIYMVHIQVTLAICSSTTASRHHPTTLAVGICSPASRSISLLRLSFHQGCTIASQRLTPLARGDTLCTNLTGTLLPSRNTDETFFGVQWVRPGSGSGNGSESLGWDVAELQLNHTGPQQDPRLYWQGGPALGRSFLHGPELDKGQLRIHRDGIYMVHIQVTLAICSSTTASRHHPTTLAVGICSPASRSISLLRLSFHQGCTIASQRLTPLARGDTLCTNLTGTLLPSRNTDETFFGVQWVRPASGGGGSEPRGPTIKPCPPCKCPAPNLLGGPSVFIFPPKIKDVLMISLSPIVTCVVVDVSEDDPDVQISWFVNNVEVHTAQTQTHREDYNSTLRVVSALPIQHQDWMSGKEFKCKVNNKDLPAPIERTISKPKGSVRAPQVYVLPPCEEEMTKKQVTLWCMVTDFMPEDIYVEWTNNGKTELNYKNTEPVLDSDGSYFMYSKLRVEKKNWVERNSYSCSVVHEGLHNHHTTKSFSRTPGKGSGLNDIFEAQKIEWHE
# T4 chain 2: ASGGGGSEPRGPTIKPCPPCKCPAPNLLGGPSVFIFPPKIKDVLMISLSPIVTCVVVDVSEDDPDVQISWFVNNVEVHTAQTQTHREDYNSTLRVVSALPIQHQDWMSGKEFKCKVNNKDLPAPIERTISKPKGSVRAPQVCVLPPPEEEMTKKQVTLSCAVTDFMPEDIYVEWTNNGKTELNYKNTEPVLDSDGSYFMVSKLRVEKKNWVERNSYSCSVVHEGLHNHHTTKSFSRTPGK
# Assays:
# [1] = molecular target: T1, recombinant cynomolgus monkey CD70 …; assay: competition ELISA, chimeric IgG titrated, CD27 coated, biotin-CD70, cynomolgus pair
# Procedure: (§1) The recombinant CD27 protein was coated at 1 μg/mL in a 96-well microtiter plate and incubated overnight at 4° C. The next day, the plate was washed 3 times with PBS, added with 200 μL of 2% defatted dry milk/PBS, blocked at room temperature for 2 hours, and washed once with PBS. The purified chimeric antibody was divided to 12 concentration gradients starting at 100 nM and diluted in a 1:3 gradient. […] of the antibody was added per well and incubated at room temperature for 30 minutes. […] The plate was washed 3 times with PBST and PBS and dried by spinning. A secondary antibody Streptavidin-coupled horseradish peroxidase SA-HRP (BD bioscience, cat. No: 6222697) was diluted with 0.5% BSA in a ratio of 1:8000. 100 μL of the diluent was added into each well and incubated at room temperature for 30 minutes. The plate was washed 3 times with PBST and PBS and dried by spinning. 100 μl of color development solution (TMB solution, Sigma, Cat. No: T2885) was added into each well and protected from light at 37° C. for reaction. After the substrate developed moderately, 50 μl of H₂SO₄ was added into each well to terminate the reaction. The OD450 nm was determined by using an enzyme-linked detector within 30 minutes, and the data was collected. The results were calculated by using Graph Pad Prism 5 software.
# [2] = molecular target: T2, cynomolgus monkey CD70, full length, on …; assay: flow cytometry, chimeric IgG on CHO-cynomolgus monkey CD70 cells
# Procedure: (§2) Different cells in logarithmic growth phase were taken, blocked with 3% BSA for 30 minutes, and plated to a 96-well U-plate at 5×10⁴ cells/100 μL. The centrifuge was performed at 1100 rpm for 3 minutes. The supernatant was discarded and the cells were gently tapped to be loosening. 50 μL of gradient diluted antibody was added (antibody concentration: from 30 μg/mL, 3-fold dilution for 5 gradients) per well, and incubated at 4° C. for 1 hour. After incubation, 180 μL of 0.5% BSA was added to each well for washing 3 times. 30 μL/well of secondary antibody AlexaFluro647 anti-human IgG (Jackson Immuno Research, Cat. No: 109-606-170) was added and incubated at 4° C. for 45 minutes. At the end of the incubation, each well was washed 3 times with 180 μL of 0.5% BSA and finally resuspended in 50 μL of PBS for iQue (Intellicyt, USA) assay.
# [3] = molecular target: T3, human CD70, full length, on CHO cells …; assay: flow cytometry, chimeric IgG on CHO-human CD70 cells
# Procedure: as §2
# [4] = molecular target: T4, recombinant trimeric protein of human …; assay: competition ELISA, chimeric IgG titrated, CD27 coated, biotin-CD70, human pair
# Procedure: as §1
# [5] = molecular target: T3, human CD70, full length, on CHO cells …; assay: flow cytometry, hybridoma supernatant, cell surface human CD70
# [6] = molecular target: T4, recombinant trimeric protein of human …; assay: ELISA binding, hybridoma supernatant, human CD70
IC50 [1],EC50 [2],EC50 [3],IC50 [4],binding result [5],binding result [6],Binder
0.21 nM,21 nM,22.5 nM,0.17 nM,–,–,"26G11 chimeric antibody (antibody, V domains shown) VH: QVQLQQSGPELVKPGASVKISCKTSGYTFADYTMHWVRQSQGKSLEWIGDIYPNDGGPNNNQKFKDKATLTVDKSSSTAYMELRSLTSEDSAVYYCARPFYYGNYAGFAFWGQGTLVTVSA VL: EMVLTQSPAIMSASPGEKVTMTCSASSSVSYMYWYQQKPGSSPRLLIYDTSNLASGVPVRFSGSGSGTSYSLTISRMEAEDAATYYCQQWSSYPLTFGAGTRLEIK"
0.15 nM,17.4 nM,16.1 nM,0.16 nM,–,–,"25H7 chimeric antibody (antibody, V domains shown) VH: EIQLVQSGPELKKPGETVKISCKASGYTFTNYGMNWVKQTPGKGLKWMGWINTDTGEPTYADDFKGRFAFSLETSASTAYLQINNLKNEDMATYFCAREEDYRYVFNYWGQGTTLTVSS VL: DIQMTQTTSSLSASLGDRVTISCRASQDISNYLNWYQQKPDGTVKLLIYYTSRLHSGVPSRFSGSGSGTDYSLTISNLEQEDIATYFCQQGVTLPLTFGAGTKLELK"
–,–,–,–,binds,binds,"4H6-A6 hybridoma antibody (antibody, V domains shown, Mouse antibody in hybridoma culture supernatant) VH: QVQLKQSGPGLVQPSQKLSITCTVSGFSLTTYGVHWIRQSPVKGLEWLGVIWTTGVVDYNAAFISRLNITKDNSKSQIFFKMNSLQTNDTAMYYCARNSYYGNLYVMDYWGQGTSVTVSS VL: DIVLTQSPASLPIFLGQRATISCRASRSVSASGYTFMHWYQQKPGQPPKLLIYLVSNLESGVPARFSGSGSGTDFTLNIHPVEEEDAATYYCQHSREFPLTFGAGTKLELK"

# — US20240247072A1 (KEYMED BIOSCIENCES, published 2024)
